US20110311550A1 (Scripps Research, published 2011)

Columns and labels:
[1] = molecular target: E1E2 complex of HCV isolate H77 (genotype 1a), wild type (HCV isolate H77, UniProt P27958 192-383; P27958 384-746); assay: competition ELISA on H77 E1E2; competitor m45 (Fab P3)
H77 E1E2 mutant P484A = H77 E1E2 mutant P484A (HCV isolate H77, UniProt P27958 192-383; P27958 384-746); assay: ELISA, alanine mutant E1E2
H77 E1E2 mutant S419A = H77 E1E2 mutant S419A (HCV isolate H77, UniProt P27958 192-383; P27958 384-746); assay: ELISA, alanine mutant E1E2
H77 E1E2 mutant W487A = H77 E1E2 mutant W487A (HCV isolate H77, UniProt P27958 192-383; P27958 384-746); assay: ELISA, alanine mutant E1E2
H77 E1E2 mutant N415A = H77 E1E2 mutant N415A (HCV isolate H77, UniProt P27958 192-383; P27958 384-746); assay: ELISA, alanine mutant E1E2
H77 E1E2 mutant G530A = H77 E1E2 mutant G530A (HCV isolate H77, UniProt P27958 192-383; P27958 384-746); assay: ELISA, alanine mutant E1E2
H77 E1E2 mutant Q412A = H77 E1E2 mutant Q412A (HCV isolate H77, UniProt P27958 192-383; P27958 384-746); assay: ELISA, alanine mutant E1E2
H77 E1E2 mutant H488A = H77 E1E2 mutant H488A (HCV isolate H77, UniProt P27958 192-383; P27958 384-746); assay: ELISA, alanine mutant E1E2
H77 E1E2 mutant H421A = H77 E1E2 mutant H421A (HCV isolate H77, UniProt P27958 192-383; P27958 384-746); assay: ELISA, alanine mutant E1E2
H77 E1E2 mutant R543A = H77 E1E2 mutant R543A (HCV isolate H77, UniProt P27958 192-383; P27958 384-746); assay: ELISA, alanine mutant E1E2
H77 E1E2 mutant N423A = H77 E1E2 mutant N423A (HCV isolate H77, UniProt P27958 192-383; P27958 384-746); assay: ELISA, alanine mutant E1E2
H77 E1E2 mutant P544A = H77 E1E2 mutant P544A (HCV isolate H77, UniProt P27958 192-383; P27958 384-746); assay: ELISA, alanine mutant E1E2
H77 E1E2 mutant T526A = H77 E1E2 mutant T526A (HCV isolate H77, UniProt P27958 192-383; P27958 384-746); assay: ELISA, alanine mutant E1E2
H77 E1E2 mutant G418A = H77 E1E2 mutant G418A (HCV isolate H77, UniProt P27958 192-383; P27958 384-746); assay: ELISA, alanine mutant E1E2
H77 E1E2 mutant L413A = H77 E1E2 mutant L413A (HCV isolate H77, UniProt P27958 192-383; P27958 384-746); assay: ELISA, alanine mutant E1E2
H77 E1E2 mutant G547A = H77 E1E2 mutant G547A (HCV isolate H77, UniProt P27958 192-383; P27958 384-746); assay: ELISA, alanine mutant E1E2
H77 E1E2 mutant P525A = H77 E1E2 mutant P525A (HCV isolate H77, UniProt P27958 192-383; P27958 384-746); assay: ELISA, alanine mutant E1E2
H77 E1E2 mutant D535A = H77 E1E2 mutant D535A (HCV isolate H77, UniProt P27958 192-383; P27958 384-746); assay: ELISA, alanine mutant E1E2
H77 E1E2 mutant N417A = H77 E1E2 mutant N417A (HCV isolate H77, UniProt P27958 192-383; P27958 384-746); assay: ELISA, alanine mutant E1E2
H77 E1E2 mutant P545A = H77 E1E2 mutant P545A (HCV isolate H77, UniProt P27958 192-383; P27958 384-746); assay: ELISA, alanine mutant E1E2
H77 E1E2 mutant I414A = H77 E1E2 mutant I414A (HCV isolate H77, UniProt P27958 192-383; P27958 384-746); assay: ELISA, alanine mutant E1E2
H77 E1E2 mutant D533A = H77 E1E2 mutant D533A (HCV isolate H77, UniProt P27958 192-383; P27958 384-746); assay: ELISA, alanine mutant E1E2
H77 E1E2 mutant Y527A = H77 E1E2 mutant Y527A (HCV isolate H77, UniProt P27958 192-383; P27958 384-746); assay: ELISA, alanine mutant E1E2
H77 E1E2 mutant I422A = H77 E1E2 mutant I422A (HCV isolate H77, UniProt P27958 192-383; P27958 384-746); assay: ELISA, alanine mutant E1E2
H77 E1E2 mutant S424A = H77 E1E2 mutant S424A (HCV isolate H77, UniProt P27958 192-383; P27958 384-746); assay: ELISA, alanine mutant E1E2
[2] = molecular target: T1, vaccinia-expressed E1E2 complex, isolate HCV-1 (genotype 1a) (hepatitis C virus, isolate HCV-1, UniProt P26664 192-383; P26664 384-746); assay: competition ELISA on HCV-1 E1E2; competitor m21 (CBH-5)
[3] = molecular target: T1, vaccinia-expressed E1E2 complex, …; assay: competition ELISA on HCV-1 E1E2; competitor m5 (AR3B)

B1: MAb AR3D (antibody, V domains shown)
VH: LEQSGAEVKKPGSSVKVSCKASGDTFRSYVITWARQAPGQGLEWMGAIIPFFGTTNLAQKFQGRVTITADESTKTVYMDLSSLRSDDTAVYYCAKAGDLSVGGVLAGGVPHLRHFDPWGQGTLVTVSS
VL: ELTQSPGTLSLSPGERATLSCRAGQTVASNSLAWYQHKPGQAPRLLIYGASIRASGIPDRFSGSGSGTDFTLTISRLEPEDFAVYYCQQYGLSSTFGQGTRLEIKR
notes: also called IgG1 of Fab L4
Question: Which “% residual binding” value [1] does the source give for B1 here?
Answer: The value was 118%.

Question: What about the “binding vs wild-type E1E2” value (H77 E1E2 mutant P484A) of the same binder?
Answer: Its value is 90%.

Question: What about the “binding vs wild-type E1E2” value (H77 E1E2 mutant S419A) of the same binder?
Answer: The value was 73%.

Question: What about the “binding vs wild-type E1E2” value (H77 E1E2 mutant W487A) of the same binder?
Answer: The value was 119%.

Question: What about the “binding vs wild-type E1E2” value (H77 E1E2 mutant N415A) of the same binder?
Answer: The value was 131%.

Question: And the “binding vs wild-type E1E2” value (H77 E1E2 mutant G530A)?
Answer: The value was 24%.

Question: What about the “binding vs wild-type E1E2” value (H77 E1E2 mutant Q412A) of the same binder?
Answer: The value was 44%.

Question: What about the “binding vs wild-type E1E2” value (H77 E1E2 mutant H488A) of the same binder?
Answer: Its value is 123%.

Question: And the “binding vs wild-type E1E2” value (H77 E1E2 mutant H421A)?
Answer: Its value is 87%.

Question: What about the “binding vs wild-type E1E2” value (H77 E1E2 mutant R543A) of the same binder?
Answer: Its value is 276%.

Question: And the “binding vs wild-type E1E2” value (H77 E1E2 mutant N423A)?
Answer: Its value is 65%.

Question: And the “binding vs wild-type E1E2” value (H77 E1E2 mutant P544A)?
Answer: The value was 318%.

Question: What about the “binding vs wild-type E1E2” value (H77 E1E2 mutant T526A) of the same binder?
Answer: The value was 135%.

Question: And the “binding vs wild-type E1E2” value (H77 E1E2 mutant G418A)?
Answer: The value was 60%.

Question: And the “binding vs wild-type E1E2” value (H77 E1E2 mutant L413A)?
Answer: Its value is 83%.

Question: What about the “binding vs wild-type E1E2” value (H77 E1E2 mutant G547A) of the same binder?
Answer: The value was 202%.

Question: What about the “binding vs wild-type E1E2” value (H77 E1E2 mutant P525A) of the same binder?
Answer: The value was 53%.

Question: What about the “binding vs wild-type E1E2” value (H77 E1E2 mutant D535A) of the same binder?
Answer: Its value is 32%.

Question: And the “binding vs wild-type E1E2” value (H77 E1E2 mutant N417A)?
Answer: The value was 74%.

Question: What about the “binding vs wild-type E1E2” value (H77 E1E2 mutant P545A) of the same binder?
Answer: Its value is 307%.

Question: What about the “binding vs wild-type E1E2” value (H77 E1E2 mutant I414A) of the same binder?
Answer: Its value is 126%.

Question: And the “binding vs wild-type E1E2” value (H77 E1E2 mutant D533A)?
Answer: The value was 146%.

Question: And the “binding vs wild-type E1E2” value (H77 E1E2 mutant Y527A)?
Answer: The value was 119%.

Question: What about the “binding vs wild-type E1E2” value (H77 E1E2 mutant I422A) of the same binder?
Answer: Its value is 113%.

Question: What about the “binding vs wild-type E1E2” value (H77 E1E2 mutant S424A) of the same binder?
Answer: Its value is 6%.

Question: And the “% residual binding” value [2]?
Answer: The value was 18%.

Question: And the “% residual binding” value [3]?
Answer: The value was 15%.
